Patent US8431396B2, “Anti-angiogenic peptides” (The Cleveland Clinic Foundation, priority 2003, dated 2013)
Numbering of substitutions follows the chain as printed.

T1: VEGF (Homo sapiens, UniProt P15692)
T1 construct: purchased Genentech (gift, not bought)
T1 sequence (P15692 27-191 isoform P15692-4): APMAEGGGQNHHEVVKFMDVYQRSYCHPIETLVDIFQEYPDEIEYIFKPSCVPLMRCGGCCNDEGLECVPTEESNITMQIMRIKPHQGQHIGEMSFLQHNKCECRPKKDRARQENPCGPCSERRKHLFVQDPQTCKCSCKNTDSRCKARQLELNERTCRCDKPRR

B1: recombinant human TIMP3 (tissue inhibitor of metalloproteinases-3) (other)
chain: CTCSPSHPQDAFCNSDIVIRAKVVGKKLVKEGPFGTLVYTIKQMKMYRGFTKMPHVQYIHTEASESLCGLKLEVNKYQYLLTGRVYDGKMYTGLCNFVERWDQLTLSQRKGLNYRYHLGCNCKIKSCYYLPCFVTSKNECLWTDMLSNFGYPGYQSKHYACIRQKGGYCSWYRGWAPPDKSIINATDP
notes: Radio-iodinated in some assays; also called rTIMP3; recombinant TIMP3
B2: TIMP3Cys1-Ser: recombinant TIMP3 protein with reduced metalloproteinase-inhibitory activity, expressed from adenovirus Rad66 (protein)
chain: B1 chain with C1S
B3: C-terminal TIMP3: chimera of residues 1-126 of TIMP-2 and residues 122-188 of TIMP3 representing the isolated C-terminal domain of TIMP3 (protein, listed as Homo sapiens)
chain: CSCSPVHPQQAFCNADVVIRAKAVSEKEVDSGNDIYGNPIKRIQYEIKQIKMFKGPEKDIEFIYTAPSSAVCGVSLDVGGKKEYLIAGKAEGDGKMHITLCDFIVPWDTLSTTQKKSLNHRYQMGCCKIKSCYYLPCFVTSKNECLWTDMLSNFGYPGYQSKHYACIRQKGGYCSWYRGWAPPDKSIINATDP
B4: recombinant human VEGF165 (ligand, UniProt P15692-4 27-191, looked up)
chain: T1 sequence (P15692 27-191 isoform P15692-4)

Columns and labels:
[1] = tested on: chick embryo chorioallantoic membrane (CAM); experiment: Chick embryo chorioallantoic membrane (CAM) assay of VEGF-mediated angiogenesis; assay type: in vivo, chicken
From the text: The CAM assay was done as described with slight modifications. Fertilized 3-day-old white Leghorn eggs (Sunnyside, Beaver Dam, Wis.) were cracked and embryos with the yolk intact were placed in glass-bottomed Petri dishes. […] Angiogenesis was reported as the angiogenic index (mean number of tertiary branchpoints from experimental conditions minus the mean number of branchpoints from buffer controls with no angiogenic stimulator).

endothelial cells = experiment: Competitive displacement of [125I]TIMP3 from the surface of endothelial cells; assay type: binding; conditions: unlabeled VEGF 2 μg/ml, TIMP3 10 μg/ml
Description: Immunoprecipitation of cell lysates with antibodies specific for TIMP3 was followed by immunoblotting with antibodies specific for KDR (top). As a control for KDR receptor, cell lysates were immunoprecipitated with anti-bodies specific for KDR and probed with antibodies specific for KDR Immunoprecipitation with antibodies specific for KDR and immunoblotting with antibodies specific for TIMP3 (bottom) were carried out on PAE-KDR cells exposed to recombinant TIMP3 or PAE-KDR-vector and PAE-KDR cells overexpressing TIMP3, to confirm the interaction. […] Competition with unlabeled TIMP3 was carried out to ensure specificity. […] (E) In vivo interaction of KDR and TIMP3 in human placenta. Immunoprecipitation using antibodies specific TIMP3 (top) and KDR (bottom) was followed by immunoblotting with antibodies specific for KDR (top) and TIMP3 (bottom).

PAEKDR cells [2] = experiment: VEGF-stimulated migration (modified Boyden chamber) of transfected PAEKDR cells; assay type: cell-based, porcine; conditions: mock cells
Description: A modified Boyden chamber assay was carried out as described previously 34. Briefly, 8.0 μm pore PVPF polycarbonate membranes were pre-coated with 100 μg/ml collagen type I in 0.2 N acetic acid (Cohesion technologies, INC. Pala Alto, Calif.). […] Chamber was then incubated for 4 hrs at 37° C. in a 5% CO2 humidified incubator. Cells remaining on the top of the filter were removed. Cells on the bottom surface of the filter were fixed, stained and mounted. The number of migrating cells per well was counted microscopically.

PAEKDR cells [3] = experiment: VEGF-stimulated proliferation ([3H]thymidine) of transfected PAEKDR cells; assay type: cell-based, porcine; conditions: mock cells
Description: Cells were seeded at a density of 5000 cells/well in 24 well culture plates and cultured for 24 h in growth medium. […] High molecular weight DNA was precipitated using 5% trichloroacetic acid at 4° C. for 30 min After two washes with ice-cold H2O, 3H radioactivity was solubilized in 1 N NaOH for 20 min at room temperature, acidified by addition of 2 N HCl, and measured using a liquid scintillation counter. Each sample was assayed in triplicate and the assays were repeated at least twice.

VEGFR1 (FLT-1) = VEGFR1 (FLT-1) (Homo sapiens, UniProt P17948); conditions: read-out: Kd of VEGF binding to VEGFR1; cited from earlier work
KDR (VEGFR2) = KDR (VEGFR2) (Homo sapiens, UniProt P35968); experiment: ELISA of sKDR binding to VEGF-coated plates
Description: In the assay, 96 well immunoplates were coated with VEG (80 ng/ml) as per standard procedures.

[4] = tested on: Choroidal Neovascularization (CNV); experiment: Laser-induced choroidal neovascularization (CNV) mouse model of AMD; assay type: in vivo, C57BL6 mice; conditions: single intravitreal injection on day 3; examined 14 days after laser
Description: We next tested the ability of intravitreal TIMP-3 tail and loop 6 peptide to inhibit Choroidal Neovascularization (CNV), a mouse model of age-related macular degeneration (AMD). C57BL6 mice (n=5) in each each group were lasered to induce CNV. On day 3 intravitreal injections [single dose] of control N terminal peptide (116) or TIMP-3 peptides (Tail peptide (SEQ ID NO: 13), Loop 6 (SEQ ID NO: 12), and Loop 5 (SEQ ID NO: 11) were administered. Animals were sacrificed at 14 days following laser and whole mount retinas were examined for evidence of CNV following injection of fluorescein dextran marker.

PAE-KDR cells = experiment: Endothelial cell migration toward VEGF (modified Boyden chamber); assay type: cell-based, porcine; conditions: added exogenously; VEGF165 10 ng/ml
Description: (B) Comparison of the effects of rTIMP3, rTIMP1 and BB3103 on VEGF165-induced migration of PAE-KDR cells. […] In all migration experiments, migrating cell number is expressed as mean±s.e.m. of quadruplicate samples. All experiments were done in triplicate. Open symbols, KDR-vector; closed symbols, KDR-TIMP3.*, P<0.01; **, P<0.05.
(§1) A modified Boyden chamber assay for migration and proliferation assays were carried out as described.

KDR = target: T2, KDR (Homo sapiens, UniProt P35968); experiment: [125I]VEGF binding to the surface of PAE-KDR cells; conditions: same conditions as TIMP3
T2 construct: To determine whether these receptor isoforms represent full-length VEGFR-2; expressed in transfected cells; host or cells: porcine aortic endothelial (PAE) cells
Description: Radioligand binding is expressed as percent binding and is the mean±s.e.m. of triplicate samples. […] All values are expressed as mean±s.e.m. of triplicate samples. […] Binding is expressed as mean±s.e.m.
Data were analyzed by Scatchard plot analyses.

VEGF = target: T1, VEGF; experiment: Solid-phase direct binding of [125I]VEGF to wells coated with TIMPs
[5] = target: T3, KDR (VEGFR2) on the surface of PAE-KDR cells (human, UniProt P35968 20-1356); experiment: inhibition of [125I]VEGF binding to PAE-KDR cells by pretreatment with TIMP3
T3 construct: whole, on cells; also called KDR-vector

[6] = target: T4, soluble KDR-IgG (receptor IgG chimeric protein) (UniProt P35968 20-764, limits assumed); experiment: solid-phase assay: displacement of [125I]VEGF165 from soluble KDR-IgG by TIMP3
T4 construct: Bought from R&D Systems; also called KDR-Fc; sKDR; not shown: IgG Fc portion
Description: Soluble KDR-Fc or FLT1-Fc (50 ng) was added to each well. […] After washing, the bound protein was solubilized with 1% SDS and 1 M NaOH and radioactivity measured in a γ-counter.

MMPs = experiment: Reverse zymography of ECM extracts (MMP-inhibitory activity); assay type: biochemical; conditions: MS1 cells infected with Rad-TIMP3Cys1-Ser vs wild-type
Description: Conditioned medium, cell lysates and ECM fractions from transfected cells were prepared. Equal amounts of protein were loaded onto a 12% gel with 1 mg/ml gelatin plus RPE cell-conditioned medium, as a source of MMPs, for reverse zymography and processed as described.

[7] = tested on: MS1 mouse endothelial cells; experiment: MS1 endothelial cells infected with adenovirus expressing WT-TIMP3 or TIMP3Cys1-Ser: apoptosis and [3H]thymidine incorporation; assay type: cell-based
Description: (§2) MS1 mouse endothelial cells\(American Type Culture Collection, Manassas, Va.) were cultured until 80% confluent and infected with adenovirus as described. Cells were infected at 50 or 200 plaque-forming units per cell for 18 h. Medium was then replaced with fresh complete medium and left for 48 h until analysis.
as §1

MS1 endothelial cells = experiment: 125I-VEGF165 binding to adenovirus-infected MS1 endothelial cells; design: species or system mouse; conditions: cells infected with adenovirus expressing TIMP3Cys1-Ser
Description: Radioligand binding is expressed as percent binding and is the mean±s.e.m. of triplicate samples. […] All values are expressed as mean±s.e.m. of triplicate samples. […] Binding is expressed as mean±s.e.m. Data is shown as percent binding of triplicate samples, with binding to PAE-KDR cells in the absence of any inhibitor as 100%. *, P<0.01. […] P<0.01.
as §2

recombinant human TIMP1 = target: T5, recombinant human TIMP1 (human, UniProt P01033 24-207); experiment: solid-phase binding of [125I]VEGF to wells coated with TIMP1
T5 construct: also called rTIMP1

[8] = target: B1; experiment: solid-phase binding of [125I]VEGF to wells coated with TIMP3
recombinant human TIMP2 = target: T6, recombinant human TIMP2 (human, UniProt P16035 27-220); experiment: solid-phase binding of [125I]VEGF to wells coated with TIMP2
T6 construct: also called rTIMP2

Chain of KDR (VEGFR2) (P35968 20-764 limits assumed): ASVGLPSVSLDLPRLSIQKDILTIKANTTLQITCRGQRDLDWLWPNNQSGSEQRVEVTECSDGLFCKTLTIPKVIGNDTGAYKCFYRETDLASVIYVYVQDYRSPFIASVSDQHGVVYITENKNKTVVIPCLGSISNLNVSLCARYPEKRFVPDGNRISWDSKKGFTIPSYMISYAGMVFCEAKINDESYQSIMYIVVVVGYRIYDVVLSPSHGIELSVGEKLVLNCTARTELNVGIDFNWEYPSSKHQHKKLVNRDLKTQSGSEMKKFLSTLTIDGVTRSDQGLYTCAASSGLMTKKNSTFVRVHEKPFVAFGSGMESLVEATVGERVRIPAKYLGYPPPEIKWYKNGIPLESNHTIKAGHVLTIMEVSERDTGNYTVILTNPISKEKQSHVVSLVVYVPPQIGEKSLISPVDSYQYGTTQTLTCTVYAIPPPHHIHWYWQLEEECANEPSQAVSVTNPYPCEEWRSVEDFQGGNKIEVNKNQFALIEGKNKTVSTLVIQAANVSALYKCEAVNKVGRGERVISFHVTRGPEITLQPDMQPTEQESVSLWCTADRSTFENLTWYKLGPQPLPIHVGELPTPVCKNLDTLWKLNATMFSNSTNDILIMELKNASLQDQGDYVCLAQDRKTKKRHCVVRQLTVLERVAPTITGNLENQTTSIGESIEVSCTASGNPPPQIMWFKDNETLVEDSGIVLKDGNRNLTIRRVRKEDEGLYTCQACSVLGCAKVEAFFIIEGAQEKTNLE
T2 sequence (P35968 20-1356): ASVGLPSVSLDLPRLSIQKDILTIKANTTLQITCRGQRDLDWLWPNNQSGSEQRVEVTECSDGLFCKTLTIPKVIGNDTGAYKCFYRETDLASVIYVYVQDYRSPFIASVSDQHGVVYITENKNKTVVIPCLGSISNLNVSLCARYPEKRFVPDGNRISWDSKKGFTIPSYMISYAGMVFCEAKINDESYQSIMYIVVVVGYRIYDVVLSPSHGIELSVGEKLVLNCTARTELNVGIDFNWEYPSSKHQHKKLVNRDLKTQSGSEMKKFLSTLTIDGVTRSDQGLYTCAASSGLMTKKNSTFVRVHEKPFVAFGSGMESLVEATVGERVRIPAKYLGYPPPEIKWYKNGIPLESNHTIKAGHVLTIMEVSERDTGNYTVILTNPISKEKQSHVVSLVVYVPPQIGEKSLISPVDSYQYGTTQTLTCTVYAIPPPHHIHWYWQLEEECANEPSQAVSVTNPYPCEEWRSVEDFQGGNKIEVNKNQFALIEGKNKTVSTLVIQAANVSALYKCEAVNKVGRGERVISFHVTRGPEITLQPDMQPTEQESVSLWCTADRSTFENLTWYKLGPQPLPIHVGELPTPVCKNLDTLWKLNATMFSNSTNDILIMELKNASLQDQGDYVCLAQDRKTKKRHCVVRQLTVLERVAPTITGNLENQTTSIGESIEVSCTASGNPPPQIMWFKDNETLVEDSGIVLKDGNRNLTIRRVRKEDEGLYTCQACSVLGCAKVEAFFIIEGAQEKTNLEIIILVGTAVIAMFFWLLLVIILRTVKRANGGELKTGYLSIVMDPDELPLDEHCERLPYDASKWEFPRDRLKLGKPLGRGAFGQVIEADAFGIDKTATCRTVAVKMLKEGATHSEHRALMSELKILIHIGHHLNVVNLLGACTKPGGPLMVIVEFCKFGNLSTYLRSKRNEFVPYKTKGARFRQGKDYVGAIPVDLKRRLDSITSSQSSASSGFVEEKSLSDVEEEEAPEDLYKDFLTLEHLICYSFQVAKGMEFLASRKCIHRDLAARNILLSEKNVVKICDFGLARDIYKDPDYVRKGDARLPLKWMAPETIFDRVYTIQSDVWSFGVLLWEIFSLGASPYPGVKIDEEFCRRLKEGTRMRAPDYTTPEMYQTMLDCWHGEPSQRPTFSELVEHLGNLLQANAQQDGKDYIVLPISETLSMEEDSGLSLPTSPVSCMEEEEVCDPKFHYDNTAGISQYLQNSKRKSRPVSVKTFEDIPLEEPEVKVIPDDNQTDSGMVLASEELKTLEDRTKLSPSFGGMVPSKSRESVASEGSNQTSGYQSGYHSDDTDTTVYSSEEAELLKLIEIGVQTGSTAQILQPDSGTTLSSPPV
T4 sequence (P35968 20-764 limits assumed, change not shown): as the sequence (P35968 20-764 limits assumed) above
Chain of VEGFR1 (FLT-1) (P17948 27-1338, species assumed): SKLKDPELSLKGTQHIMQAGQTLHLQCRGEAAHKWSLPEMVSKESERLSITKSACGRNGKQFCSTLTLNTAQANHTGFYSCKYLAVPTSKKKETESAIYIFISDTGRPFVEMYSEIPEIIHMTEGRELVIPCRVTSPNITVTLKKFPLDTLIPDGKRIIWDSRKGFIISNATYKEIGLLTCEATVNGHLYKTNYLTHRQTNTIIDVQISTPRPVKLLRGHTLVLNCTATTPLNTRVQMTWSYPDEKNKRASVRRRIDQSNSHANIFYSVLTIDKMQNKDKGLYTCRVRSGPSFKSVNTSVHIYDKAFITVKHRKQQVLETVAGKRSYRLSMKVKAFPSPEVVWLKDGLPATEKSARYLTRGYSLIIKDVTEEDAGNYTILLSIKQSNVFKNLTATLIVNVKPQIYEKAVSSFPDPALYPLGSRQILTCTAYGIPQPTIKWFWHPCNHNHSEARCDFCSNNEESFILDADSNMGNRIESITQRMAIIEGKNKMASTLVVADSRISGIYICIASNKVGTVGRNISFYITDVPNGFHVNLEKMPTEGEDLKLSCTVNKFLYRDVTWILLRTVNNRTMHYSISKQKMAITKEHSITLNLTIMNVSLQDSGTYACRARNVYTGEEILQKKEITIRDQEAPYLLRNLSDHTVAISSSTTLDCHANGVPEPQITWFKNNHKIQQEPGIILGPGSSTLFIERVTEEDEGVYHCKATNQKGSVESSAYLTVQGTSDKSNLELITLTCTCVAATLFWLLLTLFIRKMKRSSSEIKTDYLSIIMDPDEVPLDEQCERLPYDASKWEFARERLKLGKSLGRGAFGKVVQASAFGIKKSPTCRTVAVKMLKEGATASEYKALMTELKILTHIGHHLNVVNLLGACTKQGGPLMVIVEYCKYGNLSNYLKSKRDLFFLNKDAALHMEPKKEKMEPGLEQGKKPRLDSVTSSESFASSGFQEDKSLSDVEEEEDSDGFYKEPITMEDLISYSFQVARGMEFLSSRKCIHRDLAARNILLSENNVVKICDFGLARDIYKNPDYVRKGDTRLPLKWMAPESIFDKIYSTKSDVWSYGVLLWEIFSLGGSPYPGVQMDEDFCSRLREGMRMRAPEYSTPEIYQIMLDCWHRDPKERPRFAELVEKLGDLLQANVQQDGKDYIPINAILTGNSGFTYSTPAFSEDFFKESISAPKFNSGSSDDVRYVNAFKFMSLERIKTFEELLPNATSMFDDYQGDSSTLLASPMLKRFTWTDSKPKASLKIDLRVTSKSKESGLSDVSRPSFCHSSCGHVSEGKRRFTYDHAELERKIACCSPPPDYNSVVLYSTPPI
T5 sequence (P01033 24-207 limits assumed): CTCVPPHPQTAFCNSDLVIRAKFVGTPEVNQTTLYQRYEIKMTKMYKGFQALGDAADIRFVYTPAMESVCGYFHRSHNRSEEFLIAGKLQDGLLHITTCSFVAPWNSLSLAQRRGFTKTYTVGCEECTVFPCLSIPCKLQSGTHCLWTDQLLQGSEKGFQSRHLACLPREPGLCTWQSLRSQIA
T3 sequence (P35968 20-1356): as the sequence (P35968 20-1356) above

Molecule: VEGF [reference compound]
- angiogenic index (tertiary branchpoints of capillaries) ([1]; VEGF alone): 190±5
- inhibition of binding of labeled TIMP3 to the surface of endothelial cells (endothelial cells): could inhibit the binding of labeled TIMP3
- VEGF concentration of maximum migratory effect (PAEKDR cells [2]): 50 ng/mL
- VEGF concentration of maximum proliferative activity (PAEKDR cells [3]): 15 ng/mL
- Kd (VEGFR1 (FLT-1)): 0.015 to 0.1 nM

Molecule: GYCSWYRGWAPPDKSIINATDP (listed as Homo sapiens) [tail peptide, synthetic peptide from the tail portion of the C-terminal region of TIMP-3]
- inhibition of VEGF binding to KDR at lower doses, comparison of peptides (KDR (VEGFR2); 0.03 μM and 0.1 μM): inhibited VEGF binding better than the Loop 6 peptide and the Loop 5 peptide
- inhibition of VEGF binding to KDR (KDR (VEGFR2); 3 μM): inhibit VEGF binding
- inhibition of VEGF binding to KDR compared with recombinant TIMP-3 (KDR (VEGFR2); 3 μM): same levels as recombinant TIMP-3
- inhibition of CNV (fluorescein dextran, whole mount retina) [4]: inhibit CNV

Molecule: KNECLWTDMLSNFGYPGYQSKHYACIRQKG (listed as Homo sapiens) [loop 6 peptide, synthetic peptide from loop-6 of the C-terminal region of TIMP-3]
- inhibition of VEGF binding to KDR (KDR (VEGFR2); 3 μM): inhibit VEGF binding
- inhibition of CNV (fluorescein dextran, whole mount retina) [4]: inhibit CNV

Molecule: TIMP1: recombinant human TIMP1 expressed in NSO myeloma cells [reference compound]
- angiogenic index (tertiary branchpoints of capillaries) ([1]; VEGF plus inhibitor): 172±8
- inhibition of endothelial cell migration toward VEGF (PAE-KDR cells): not observed
- inhibition of binding of VEGF to PAE-KDR cells (KDR): could not inhibit the binding of VEGF to KDR
- direct binding of [125I]VEGF to coated TIMP (VEGF): did not detect direct binding

Molecule: O=C(NO)[C@@H](Cc1ccccc1)NS(=O)(=O)c1ccc(-c2ccccc2)cc1 [MMP-2 and MMP-9 inhibitor, (2R)-[(4-biphenylylsulfonyl)amino]-N-hydroxy-3-phenylpropionamide]
- inhibition of binding of VEGF to PAE-KDR cells (KDR): could not inhibit binding of VEGF

Molecule: B1
- IC50 [5]: 3.3 to 4.5 µg/mL
- IC50 [6]: 2.9 µg/mL

Molecule: B2
- metalloproteinase-inhibitory activity (reverse zymography of ECM extracts) (MMPs): reduced metalloproteinase-inhibitory activity
- apoptosis after adenovirus infection ([7]; MS1 cells infected with wild-type or mutant virus): No apoptosis was observed
- proliferative response to VEGF ([3H]thymidine incorporation) ([7]; cells infected with Rad-TIMP3Cys1-Ser): still inhibited in their proliferative response to VEGF
- binding of VEGF to cell surfaces (MS1 endothelial cells): reduced binding of VEGF to its cell surfaces

Molecule: B3
- inhibition of VEGF binding to KDR by TIMP3 domains (KDR (VEGFR2); preliminary studies): inhibits binding of VEGF to KDR

Molecule: B4
- binding result (recombinant human TIMP1): no binding
- binding result [8]: no binding
- binding result (recombinant human TIMP2): no binding
